In patent publication US20260116958A1 (University of California, published 2026):

Experiments:
[1] = target: T1, active BoNT/G holotoxin (Clostridium botulinum, UniProt Q60393 2-1297); test: KinExA, IgG
T1 sequence: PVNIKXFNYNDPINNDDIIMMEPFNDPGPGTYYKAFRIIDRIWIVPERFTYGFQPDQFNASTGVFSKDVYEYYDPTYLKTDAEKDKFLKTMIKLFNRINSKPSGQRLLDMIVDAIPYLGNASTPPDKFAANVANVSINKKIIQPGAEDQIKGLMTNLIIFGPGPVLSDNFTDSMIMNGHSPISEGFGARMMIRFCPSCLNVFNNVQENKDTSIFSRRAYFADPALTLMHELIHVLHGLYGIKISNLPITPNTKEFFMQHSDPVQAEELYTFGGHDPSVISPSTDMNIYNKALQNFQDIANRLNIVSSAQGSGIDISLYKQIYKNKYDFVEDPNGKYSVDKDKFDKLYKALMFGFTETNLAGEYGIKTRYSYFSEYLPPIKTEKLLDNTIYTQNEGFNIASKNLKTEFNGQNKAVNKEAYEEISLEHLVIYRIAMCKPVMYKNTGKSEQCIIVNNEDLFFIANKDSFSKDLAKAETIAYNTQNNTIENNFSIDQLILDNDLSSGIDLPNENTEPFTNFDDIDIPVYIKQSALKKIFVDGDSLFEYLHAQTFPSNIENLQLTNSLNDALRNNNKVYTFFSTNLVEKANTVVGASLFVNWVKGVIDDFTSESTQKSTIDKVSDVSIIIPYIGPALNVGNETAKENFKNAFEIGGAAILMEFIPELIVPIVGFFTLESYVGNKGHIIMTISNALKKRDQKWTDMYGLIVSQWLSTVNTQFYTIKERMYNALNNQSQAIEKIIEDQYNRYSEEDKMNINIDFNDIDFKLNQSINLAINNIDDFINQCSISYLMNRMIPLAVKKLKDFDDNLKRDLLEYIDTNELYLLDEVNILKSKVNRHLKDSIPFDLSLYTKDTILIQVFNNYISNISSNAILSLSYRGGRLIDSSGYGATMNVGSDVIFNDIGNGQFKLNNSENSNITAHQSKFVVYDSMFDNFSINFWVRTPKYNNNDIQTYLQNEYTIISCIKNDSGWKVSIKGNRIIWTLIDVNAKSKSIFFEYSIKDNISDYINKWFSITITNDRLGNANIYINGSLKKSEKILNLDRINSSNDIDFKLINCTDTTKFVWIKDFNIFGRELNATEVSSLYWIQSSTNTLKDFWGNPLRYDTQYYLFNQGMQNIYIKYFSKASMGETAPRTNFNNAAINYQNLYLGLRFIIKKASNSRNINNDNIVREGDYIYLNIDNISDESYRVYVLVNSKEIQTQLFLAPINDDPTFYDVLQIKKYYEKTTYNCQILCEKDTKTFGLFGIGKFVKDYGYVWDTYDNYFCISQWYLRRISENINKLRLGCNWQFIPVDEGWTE

[2] = target: T1, active BoNT/G holotoxin; test: KinExA, IgG; 'affinity to the active BoNT/G holotoxin'
[3] = target: T2, inactive BoNT/G (BoNT/Gi) (Clostridium botulinum, UniProt Q60393 1-1297); test: titration on yeast-displayed scFv, flow cytometry, fit y = m1 + m2*M0/(m0+m3)
T2 sequence: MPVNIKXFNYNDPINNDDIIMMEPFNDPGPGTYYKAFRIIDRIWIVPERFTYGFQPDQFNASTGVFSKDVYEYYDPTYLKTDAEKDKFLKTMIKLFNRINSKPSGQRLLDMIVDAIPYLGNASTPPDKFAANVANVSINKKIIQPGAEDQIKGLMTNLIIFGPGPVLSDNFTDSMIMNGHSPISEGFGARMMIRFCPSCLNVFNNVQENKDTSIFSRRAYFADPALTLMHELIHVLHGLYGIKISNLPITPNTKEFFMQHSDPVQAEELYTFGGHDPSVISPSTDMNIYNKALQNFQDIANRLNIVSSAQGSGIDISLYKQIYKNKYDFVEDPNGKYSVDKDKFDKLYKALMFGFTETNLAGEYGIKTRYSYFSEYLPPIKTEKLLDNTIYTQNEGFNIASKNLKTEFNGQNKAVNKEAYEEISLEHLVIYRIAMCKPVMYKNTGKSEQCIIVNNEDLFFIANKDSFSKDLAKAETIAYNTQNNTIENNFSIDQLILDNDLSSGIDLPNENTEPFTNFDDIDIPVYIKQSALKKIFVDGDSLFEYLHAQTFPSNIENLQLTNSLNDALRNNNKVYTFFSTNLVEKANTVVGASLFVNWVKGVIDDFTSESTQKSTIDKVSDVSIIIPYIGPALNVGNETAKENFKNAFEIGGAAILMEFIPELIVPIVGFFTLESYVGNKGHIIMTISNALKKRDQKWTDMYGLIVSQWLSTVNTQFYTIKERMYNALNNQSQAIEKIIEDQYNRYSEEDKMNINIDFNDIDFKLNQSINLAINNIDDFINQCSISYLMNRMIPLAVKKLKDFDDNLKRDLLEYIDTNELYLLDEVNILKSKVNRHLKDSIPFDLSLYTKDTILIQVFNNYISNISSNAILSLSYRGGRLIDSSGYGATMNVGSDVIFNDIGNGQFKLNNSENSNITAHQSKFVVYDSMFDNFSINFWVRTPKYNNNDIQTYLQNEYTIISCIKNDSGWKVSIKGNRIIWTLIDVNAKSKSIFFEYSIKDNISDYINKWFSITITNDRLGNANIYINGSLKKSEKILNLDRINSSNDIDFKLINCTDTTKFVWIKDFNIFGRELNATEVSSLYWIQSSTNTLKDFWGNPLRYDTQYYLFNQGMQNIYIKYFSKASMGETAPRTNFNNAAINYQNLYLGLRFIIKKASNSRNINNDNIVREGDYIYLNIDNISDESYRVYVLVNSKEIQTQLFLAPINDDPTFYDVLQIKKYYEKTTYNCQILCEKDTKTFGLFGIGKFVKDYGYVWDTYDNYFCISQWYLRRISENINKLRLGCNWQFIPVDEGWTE

[4] = target: T2, inactive BoNT/G (BoNT/Gi); test: FACS, scFv on yeast
[5] = target: T2, inactive BoNT/G (BoNT/Gi); test: titration on yeast-displayed scFv, flow cytometry, fit y = m1 + m2*M0/(m0+m3); remark: listed apart in the source
[6] = target: T2, inactive BoNT/G (BoNT/Gi); test: flow cytometry, scFv on yeast
[7] = target: T2, inactive BoNT/G (BoNT/Gi); test: scFv on yeast surface
[8] = target: T2, inactive BoNT/G (BoNT/Gi); test: titration on yeast-displayed scFv, flow cytometry, fit y = m1 + m2*M0/(m0+m3); remark: listed apart in the source
[9] = target: T2, inactive BoNT/G (BoNT/Gi); test: as above; remark: listed apart in the source

B1: Hu6G7.2 IgG (antibody, V domains shown)
VH: QVQLVQSGAEVKKPGASVKVSCKASDYSFTDYNIYWVRQTPGQGLEWIGYIDPYNGGTSYNQKFKGRATLTVDKSISTAYMELSRLRSDDTAVYYCALYGYDPDYTEYWGQGTTLTVSS
VL: DIVLTQSPASMAVSPGQRVTITCSASSSVSYLHWFQQKPGQSPKLWIYSTSNLASGVPARFSGSGSGTDYTLTINPMEAEDTATYYCQQRSSYPYTFGQGTKLEIKR
Kd [1]: 0.051 nM | Kd [2]: 0.051 nM

B2: 6G10 scFv (scFv, V domains shown)
VH: EVQLQQSGPELVKPGASVKISCKASGYSFTGYFMHWVKQSHVKSLEWIGRINPYNGDIIYNQNFKDKASLTVDKSSSTAYMELHSLTSEDSAVYYCASLFGLYYFDYWGQGTTLTVSS
VL: EIVLTQSPAIMSASPGEKVTMTCSASSSVSYMHWYQQKSGTSPKRWIYDTSKLASGVPARFSGSGSGTSYSLTISSMEAEDAATYYCQQWSSNPLTFGAGTKLELKR
Kd [3]: 2.48 nM | Kd [4]: 2.48 nM

B3: 6G9 scFv (scFv, V domains shown)
VH: EVQLQQSGDDLVKPGASVKMSCKASGYTFTSYWMHWVKQRPGQGLEWIGYINPSTGYTEYNQKFKDKATLTADKSSSTAYMQLSSLTSEDSAVYYCARGGNYVDYWGQGTTLTVSS
VL: EIVLTQSPAIMSASPGEKVTISCSASSSVSYMYWYQQKPGSSPKPWIYRTSNLASGVPARFSGSGSGTSYSLTISSMEAEDAATYYCQQWSSNPYTFGGGTKLEIKR
Kd [4]: 18.8 nM | Kd [5]: 5.6 nM

B4: 6G7.1 scFv (scFv, V domains shown)
VH: DVQLQESGPELVKPGASVKVSCKASDYSFTDYNIYWVKQSHGKSLEWIGYIDPYNGGTSYNQKFKGKATLTVDKSSSTAFMYLNSLTSEDSAVYYCALYGYDPDYIDYWGQGTTLTVSS
VL: QIVLTQSPAIMSASPGEKVTITCSASSSVSYLHWFQQKPGTSPKLWIYSTSNLASGVPARFSGSGSGTSYSLTISRMEAEDAATYYCQQRSSYPYTFGGGTKLEIKA
Kd [6]: 2.1 nM | Kd [4]: 0.27 nM | Kd [7]: 0.69 nM | Kd [8]: 1.29 nM | Kd [9]: 0.27 nM
